According to the domain aggregation screens of Martell et al. (2025):

test: soluble fraction after stress (log2 fold change); higher = more stays soluble; pooled small domains, quantitative proteomics; settings: stress: pH 4
Outline: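 Small protein domains from pooled custom libraries were exposed to pH 4, then quantified with high-throughput quantitative proteomics. The fold change in how much of each domain remains soluble is read as aggregation propensity. It is given as log2, with higher values meaning more stayed soluble.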

Row | Sequence | soluble fraction (log2)
1 | HMFPNLTNEEQQVMKVLAKTNDLQINMLSVQSNLPIARLTALLFSMEMKGVVKTLAGGVYHLL | 0.375
2 | HMERDIATKHEVNRTVEAYSDIVKTLNLPSHKINLVEISFFNILKRSKPSPRENSILLGLAQKIKLHLEKK | -0.473
3 | HMRPPLRAAIIDHLARDWHTVAELARLLPASGAHVSRLVVELRAVGAVDERISHPDWPGNRPTEYRLRRA | -1.05
4 | HMEYQSLVLDFLEQGDFNAEKLKDYQRAFAKQNGMQTLPSKSQILQAYFQLVEEKKINKNSDFELLLRKR | -0.362
5 | HMDLQHQLTPRLKRLRLSGILETLEVRNQQAIAEKWSYVEFLTRLAEDEVERRDHKQLTLRLR | -0.564
6 | HMRGFGYVRRLPSKRYQASYAGPDLQRHVAPTTFTTKADAESWLGAERKVVESGSWRPPAVREAEARLS | 0.412
7 | HMLAAAVVVYATDKVNVRAEASETADVIGQLEAGSQTTRLEDKDGWSRIDYSNGTQGYMKSEFLSTEAPT | -0.622
8 | HMNMAEQGISLDSEAGKARFVSQALPLLKQLPDGVFKQRMLNQLADRVEVTADFIAQQLAQLKAA | -0.266
9 | HMGNHMSFKMWGEQLQEAFRALETYDTQKAKTILNELVRFPIDSDITKALKGIISNIDDMMA | -0.721
10 | HMGMTNRIKELRKAKGYRQEDLAAALGVSRQTIIAVENNKYNPTLELAMKLARHLQTTVEELFQL | -0.885
11 | HMLTRQRKQLLEYLSKHTDEQMTARQIADALTAESISISAVYRNLSALEEEGILKRSIRENTREVYYQYIA | -0.231
12 | HMEGTVQQDKFDAYKAKFEDAISNDLNTSMAITIIYDLLKDDMNDKTKLALINDFDKVLSLNLTTA | -1.17
13 | HMPAPKPSGALSLKDEPLYAASDSKRRSGTVSGTYYRWDGENVNGRMRITNKQENIGKAGQVTGWITAH | -0.00233
14 | HMKVLFLESIEGSASMGEIKDVANGYARNFLFPNGFAVPATPKNLKNVEELQAKELEIQTERDNWAA | -0.713
15 | HMIQIQDIAFSEFLQELDKGNIVEVNIKGDLINGDLINGKKFKTVAPYDPNLVEKLSKQNVRINVEPIN | -0.0277
16 | HMEVVVPDFEKIYIRDLDKFVEGHNVRYEIVDSIYNLEKDKGTVVDQDPEPGSKVKHGRVIYLTVNAML | -0.678
17 | HMENSMDTDWDVSGVDPSQYRLLFSTLGAIAGVKDVGLNPDGLKIIHTPEALPAIKQAFDANNLKLKMRTN | -0.251
18 | HMNETTVPDVINQNISTGKIIIEDADLEYRIQYIPSEKSSSIGTIINSIPIYGKRVKSGTIVDLKVLG | -0.34
19 | HMDITGIGIKKRIKAIIDSEDKKNPLSDTQIVEILKNEGLEISRRTVAKYRSDLQIPSSSKRKK | 0.335
20 | HMGLSARIAQRIHGLRTAQRMSLEALAARSGVSRSMISLIERNEASPTAVVLEKIATGLNVVLAALFDTP | -0.324
21 | HMPHITDAEWEVMRVVWANHHVTSKEVISILEDKMNWKATTIKTLLGRLVEKGALSTEQDGKKFIYTAR | -0.622
22 | HMNMPHEIDANFISSLGRLIDNHGKNYGDFQIFREMFLDYFPRFDELSSNNKEKINRRLYKFFETLFG | -1.44
23 | HMLQADALADPVGWALRTLGFDLEAGTPERSAIQRSFRQSLIEAHPDHGGADDEAAQRIADITEARRILLA | -0.858
24 | HMNQRTATVTASQLNVRSGPSTAYSIVHVLRQGETVEVIGESDGWYQIRLKDGRVGWSSGQYLNLN | -0.481
25 | HMEMTDKEEELMRIFWNHGPMFVREIVELYPEPRPHFNTLSTFVRNLEQKGFVSHEAVGGSFRYYAV | -1.44
26 | HMQLGEEAGDELVAIVRSVINDNDKALADYLAGKSSALKFLLGQVMRQTKGRADHALVQSLLEAELEAL | -0.586

Row | Sequence | soluble fraction (log2)
27 | HMLYDNQLPDWAGQMVKNHGLTISPKALVILVDHIGNDLSRIENEIEKLMLNLGTRKSITEDDVEN | -1.34
28 | HMTPTFSNQDLIKAGLAGSPVAKRRRERLGELLGIGYGNAKQLLKRLDLFAIDRPTFERAVAQLDQEGK | 0.414
29 | HMAMDYTVVHSDRRTIAIQIQRDGRVVVRAPYAATAEDIRRVVDSHRDWVEKTVRRQQEQLAAS | 0.238
30 | HMDKVSYALGLGIGRQLTDMGAKDLNIDDFAQAIKDVLAGGEVKLSDAEAQTIVRNFFDEQEKKQRA | -0.637
31 | HMLLTEETLPQLKQIVDEFPYFQIARMLYLKNLAVLNDIRFSVELKKMSIYVPDRRKLFTLIEGE | -0.69
32 | HMRININNASARQIADALPGVGLKTARDIKDFQTTLSGERYTRLDQLHSIKRVDWDEIFKADLVRV | 0.158
33 | HMIQNTGMMESGDSIRGMALDAGFPLLMVVGYRGWTRKGNTPDSAAVYTEPFLNAFRLNYYLVEHDE | -0.0253
34 | HMSGIGTTIKMLRENKNISQEELGNVLGVSDKTISSWEINRTEPKMGIVQLLADYFGVSTDYLIKG | -0.201
35 | HMQIAGLDDIDNRIIDLLLKNGRASYSEIGAAVGLSRTAAKNRIRALEASGIIRGYQAILDPQA | 0.0596
36 | HMKEGGREEMSEIVERYGDERALMANITSVQNLMNNMKWTLDQALDALGIKGKERTLITQQLQ | -0.145
37 | HMQEISQEEALATVLKDLSLTEADLKDLQITREEDKYKILFSKGQTAYDVLVSAKDGQLLQSKQETI | -0.359
38 | HMDNMFMPPVNGWDVRQALQKLQNEMGLQVKMEYSPSETITEGYVISYTPIDGMKVEKGDEVTLVISTGPE | -0.675
39 | HMKDMWNRIRRARLSAGLSQAALAKETGVRRSAVTQWEKEGGTSPSVANLARIAVVTQVHFEWLATGRGPG | -0.216
40 | HMDAEEISILLEKAVLQLPEKQKMIFQLKYFEDLSYKDIQIITGGSIGGLKANYHHAVTKIEKLLS | -0.892
41 | HMGSGQVTLPDLEGKSMKEVARILSQLGLHLSPDGHGLAFKQSPAAGTRVPVGSTIKVSFQPL | -0.208
42 | HMVTVNAFGKSGPEPAAMTKEALAKGADEVRVIVDSPTAAASVRDFLIGAGLRVQLQDDEGQLIVVGEKK | 0.344
43 | HMESAQLIINVAGKVSNPGVYQLPQGSRVVDAIEAAGKQLKGVDISDINLARVLVDGEQILVGGV | -1.35
44 | HMTNADRYIGQEATVTEKISNELSTGAVRIGGLVWTARTVDNSEAEEGERVTVEAIEGAKLLVKRR | -0.0323
45 | HMEPFEQLLDRITSQTGKEPEEVVARMNELITERFDGNIRPEAALVIVAKRDNIQFMDLLDQLKQALL | -0.907
46 | HMDDGLTRLTPRENEVLELMAQGRSNTAIAERLVLSYGAVEKNVSSIFTKLDLPLDAGDHRRVLAVLRRLN | -0.677
47 | HMGFDTSMNKYTIDDLLKLLELGSNPSQAEIVNKITNFNTIFVDNSGVIQFLNNIQDKLLDNFK | -0.95
48 | HMAEVALFVNGSDVNLRSGPGQESTRVIGSLNLGDEVRIKSQNGQWREVYVPKTRQVGWVAHWLLSEAPP | -0.527
49 | HMSQIILSARSGHAALRHRLGELGYTFADKEFDDIYERFLEVADQKKEVYDEDLESIVQERQRD | -0.559
50 | HMEGTEVTTEPPGAQIEFDGKQFGPTPTRVPGLAAGKQFRITLAGYQEAKPKLKNNPKEGEPLSFTLTAI | 0.264
51 | HMARTDVKLREVAQELLRMGLLEESLRPHLYRTALASMERLNATLEPLDLIARADEIRGLVFLAVRH | -0.548
52 | HMTDSISLTLNGDPRPFRAGATVADLVRDIGLDPAKVAVERNLEIVPRSTLENVHLADGDVLEIVHFV | -0.45

Row | Sequence | soluble fraction (log2)
53 | HMHRIKRRNDTLVSALDSIAGIGAKRKKALLQHFGSVRAIKAVSAEEIAKVEGISPTLANQIFEAL | -0.0221
54 | HMAGLKERLFYFIEYKGLTVQSFEKTVGLSNGAVSKMGDNTRRSTIDKISNFFGDLNKNWLLTGEGEMLI | -0.638
55 | HMTEKQYIYSIGDRVNIGTDEFEIVNINEKEVSIADVTFPMLVKQISYEEFDRKVKENPFNDHLII | -1.25
56 | HMSGMEKLAIQEIEKEIKSFVKGDILIELTGKNRATAYVSEKNVGALIGKKGERINSIEKRLGVGIDVRPY | -0.275
57 | HMAPNKLQQQEVWTKALPLLQQMIMTIRQIDAAGGDSSPERELLEETAARFDETLDVERFLP | -0.774
58 | HMTGIQLNDRERAILQHLSDGLTTKAIAERIFLREDTVKWYRKNLLARFEQPIVAALVKWAVLEGLV | 0.409
59 | HMNTGIPHQEVIKKLYSFAEGGDWKGLKEELNRIKEYTLFYNSVKELADSFEINRLIEKLKTYIF | -0.0132
60 | HMRLLGEPLAGRLKKDVPVVTGRSTESKAIAQFFELRWSHLPDPEARTISVASGRIDFMDVGATRFSLR | 0.124
61 | HMSEMLPFDEARRQFERDYLVQLLKLTSGNVSQAARLARRNRTDFYALLGRHQLEPASFKPE | -0.641
62 | HMIAVLEEGSRFRAINDISGKPFGPEMIIKNGQVIAAGKKILTKPKKLIGKKEGTKFNISGKEYVIKDI | -0.834
63 | HMSLTMPKLIGMHLFQAERTLNYYGFQYKVEGPDSASVVIDQYPKEGVTVDPHYPITLKIGPSA | 0.206
64 | HMTEVPSLSSLKIGDLIFYRNNKGAIAHSAIITSFYNGRPFISQHTFNALNITYVKDWASKMHFIKIW | -0.934
65 | HMATAADLLQSATGVPRSDALLLLAKLLGVAKERLIAHPETVVSEKTQATFSDWIERVRGGFPTTYLLG | 0.0658
66 | HMKTITVEDEQAGKRLDKALAELFPHYSRSALEKLIKEGQVLVNKSFVKSKYSLKLGDEISLQFEQL | 0.0205
67 | HMQNNWFYEENGQRKGPVSENEMVQFIKSSVISHGTSVWKQGFPDWLKVENTDLRVHLDNSAP | -0.611
68 | HMRRATLERLANNTAEKAIRYKRSLALEPMNPQERRIIHAALQEVEGVSTHSVGTEPNRKVIVVPDGV | -0.186
69 | HMTATVPDSEAGIRLDVYAAALLGVSRAGAQKYIESGAVRVNGLPAPKNRRLESGDVIEAVLPDPE | ≥ 0.43
70 | HMRTIGDSVYEKIKYDIVHLTLKPGEKLSEASLAEKYGISKAPIRVALRKLQEEGLIVIRPQSGSIVSP | 0.0262
71 | HMSAMKYTSEVFQRLSRGQFISSNSIDAETRAIYSDIEENQQEYEDYFSKIDFLLSSGDGFYYFSRK | -1.22
72 | HMNKWMQLASEEDKKLFNEAPKEIQDSITESAKFFDIRTKADVDTFWANTGLRQMKQQAMLNESFVNEY | -0.482
73 | HMNEFNEVVPDSLEGERLDRLLAFIGNISRSEASNIIKGGEVLINGKVVTRPSFKVTLGNRVEFSIRD | -0.19
74 | HMDIVENSMPNVVGLELNRAKELMTQLGFTNVRYEPTESSRPENEVVYQSVDKDETLDVSSEIIIQYSSGV | -0.535
75 | HMGRELSDLELSLLRILDDKIPLLIDEAADRLQLPVAQVLSAVTIMEIDGLIRREGMRKYLRTVEVEETK | -1.3
76 | HMELARLRPELDGNDIMRILGVPPGPVVGRAYTYLLELRINQGELGRERVTQLLLDWAAAEGISA | -1.8
